We go through four molecules from patent US10428308B2, “Mesoderm and definitive endoderm cell populations” (Icahn School of Medicine at Mount Sinai, priority 2005, dated 2019).

In one test the test system is CD4-HNF/GFP-T ES cells. Description: Activin A / Wnt3a induction of ES derived primitive streak like cells in serum free culture, with pathway inhibitors. The conditions noted are these: for development of GFP^+ CD4^+ cells with either inducer (activin or Wnt): DKK1 100 ng/ml or SB-431542 6 uM. The class given is cell-based, mouse. How it is done: FIGS. 34A, 34B and 34C depict ES cells differentiated in serum free conditions with Activin A Wnt3a and/or inhibitors of these pathways. ES cells were cultured in serum free media for two days then trypsinized to obtain a single cell population. These cells were then reaggregated with the indicated conditions. At day six, the EBs were plated on matrigel coated dishes in serum free media.
Liu et. al. (1999) Nat. Genet. 22: 361-4. […] Activin stimulation leads to high levels of CD4 expression that persist after loss of GFP-Bry expression at day 6. […] Wnt does however stimulate expression of the posterior primitive streak markers HoxBI and Tbx6, while activin only induces Tbx6. […] At day 6, EBs that were stimulated with either activin or Wnt3a were plated on matrigel in serum free media to allow further development.
Considering that Wnt stimulation induces nodal and activin treatment induces Wnt3 (FIG. 34B), it is unknown whether activin/nodal signaling or Wnt Signaling alone can induce primitive streak formation or whether both factors are required together. CD4-HNF/GFP-T ES cells were induced with either activin or Wnt in conjunction with specific inhibitors of these pathways. DKK1 was used to inhibit Wnt signaling while the small molecule inhibitor SB-431542 (SB) was used to block Nodal/TGFβ signaling. DKK1 functions by binding the Wnt co-receptors, LRP5 and LRP6, which are essential for activation of the βcatenin signaling pathway. […] Inman et. al. (2002) MoI. Pharmacol. 62: 65-74. […] Therefore, to induce mesoderm and endoderm germ layers and their derivative tissues, both activin/Nodal and Wnt signals are required initially.

The test system of another test is ALK4, 5, and 7. The note with it: Inman et al. (2002); cited from earlier work.
In test [1] the test system is GFP^+ hCD4^med cells from CD4-HNF/GFP-T ES cells. Kind of test: Reaggregation of sorted GFP^+ hCD4^med cells in serum free media with DKK1 and/or activin. The class given is cell-based, mouse. As to the method: FIGS. 35A and 35B depict, the effects of DKK1 and activin on EB differentiation. EBs differentiated and sorted as in FIG. 32 for GFP^+ hCD4^med were allowed to reaggregate in serum replacement containing media alone or with the addition of human DKK1 100 ng/ml, activin 100 ng/ml, or both factors together. […] FIG. 35B depicts endodermal gene expression by RT PCR. The sorted populations were treated as indicated above for 2 days, then plated on matrigel in serum free media without factors added. Gene expression was analyzed an additional 5 days after plating.
Nodal, a key molecule involved in mesoderm/endoderm induction in vivo, signals through the same receptors as activin. It is also known that Nodal as well as inhibitors for Wnt signaling are expressed preferentially in or around the anterior primitive streak. Considering that the endoderm forms from the anterior primitive streak, it is possible that nodal/activin signaling in combination with inhibition of Wnt signals induces endoderm formation. To test this hypothesis, CD4-HNF/GFP-T ES cells were differentiated for 3.25 days in serum and GFP^+ hCD4^med cells were sorted and reaggregated in serum free media with no factor, DKK1 (Wnt inhibitor), activin, or activin and DKK1. The effect of these culture conditions on hCD4-HNF3β and GFP-Bry levels were analyzed by flow cytometry (FIG. 35A). With serum free media alone, hCD4 expression was lost after 1 day reaggregation. […] To further test this idea, sorted cells reaggregated for two days in the culture conditions above were washed with serum free media without factors and plated onto martrigel in serum free media. After 5 days, the cultures were harvested and gene expression determined by RT PCR. […] These culture conditions have the potential to allow the large scale production of endodermal derived tissues such as the pancreas and liver.

Another test has as its system EBs (brachyury^+ cells). Description: BMP4 added to developing EBs in serum free cultures, GFP/Flk-1 expression. The class given is cell-based, mouse. The conditions noted are these: BMP4 20 ng/ml. How it is done:
FIG. 8B depicts expression of brachyury and Flk-1 on cell populations generated from GFP+/Flk-1^− cells cultured for 20 hours under the indicated conditions.
To assess the role of serum in the development of brachyury^+ cells, EBs were differentiated the absence of serum. EBs did develop under these conditions, although they were somewhat smaller than those found in normal conditions. […] Significant numbers of GFP^+/Flk-1^− and GFP^+/Flk-1^+ cells did develop when serum was added to the cultures. […] As a first step in identifying factors that might play a role in this process, BMP4 (20 ng/ml) was added to the developing EBs in the serum free cultures. […] To determine if BMP4 could induce GFP^+/Flk-1^+ from GFP^+/Flk-1^− cells that were induced in the presence of serum, GFP^+/Flk-1^− cells were isolated from EBs differentiated for three days in the presence of serum. These cells were reaggregated in medium alone, in medium with serum or in medium with BMP4. […] As expected, the same population generated a large GFP^+/Flk-1^+ population when serum was added to the cultures. Consistent with the findings in the primary differentiation cultures, BMP4 was unable to induce the development of significant numbers of GFP^+/Flk-1^+ cells from the cultured GFP^+/Flk-1^− cells.

For `NC(=O)c1ccc(-c2nc(-c3ccc4c(c3)OCO4)c(-c3ccccn3)[nH]2)cc1` [SB-431542], the “development of GFP^+ CD4^+ cells with either inducer (activin or Wnt)” value in the test on CD4-HNF/GFP-T ES cells was “completely blocked”. In the test on ALK4, 5, and 7, the “effect on BMP signaling” value is “does not, however, block BMP signaling”; the receptor specificity entry is “specific inhibitor of the receptors ALK4, 5, and 7”.

B1: Wnt3a: recombinant Wnt3a (protein, UniProt P56704 19-352, looked up)
Protein Wnt-3a: SYPIWWSLAVGPQYSSLGSQPILCASIPGLVPKQLRFCRNYVEIMPSVAEGIKIGIQECQHQFRGRRWNCTTVHDSLAIFGPVLDKATRESAFVHAIASAGVAFAVTRSCAEGTAAICGCSSRHQGSPGKGWKWGGCSEDIEFGGMVSREFADARENRPDARSAMNRHNNEAGRQAIASHMHLKCKCHGLSGSCEVKTCWWSQPDFRAIGDFLKDKYDSASEMVVEKHRESRGWVETLRPRYTYFKVPTERDLVYYEASPNFCEPNPETGSFGTRDRTCNVSSHGIDGCDLLCCGRGHNARAERRREKCRCVFHWCCYVSCQECTRVYDVHTCK
With B1, the “endodermal gene expression (Alb, Aat, HNF4, Pdxl) by RT-PCR” value in the test on CD4-HNF/GFP-T ES cells (day 6 EBs plated on matrigel a further 6 days, serum free) is on record as “did not express any of these markers”. The “induction of GFP^+ CD4^+ cells” value with CD4-HNF/GFP-T ES cells (serum free, Activin A 25 ng/ml or Wnt3a 100 ng/ml) is recorded as “initially induce GFP^+ CD4^+ cells”.

B2: DKK1: Wnt signaling inhibitor binding the Wnt co-receptors LRP5 and LRP6 (protein, UniProt O94907 32-266, looked up)
Dickkopf-related protein 1: TLNSVLNSNAIKNLPPPLGGAAGHPGSAVSAAPGILYPGGNKYQTIDNYQPYPCAEDEECGTDEYCASPTRGGDAGVQICLACRKRRKRCMRHAMCCPGNYCKNGICVSSDQNHFRGEIEETITESFGNDHSTLDGYSRRTTLSSKMYHTKGQEGSVCLRSSDCASGLCCARHFWSKICKPVLKEGQVCTKHRRKGSHGLEIFQRCYCGEGLSCRIQKDHHQASNSSRLHTCQRH
With B2, the “development of GFP^+ CD4^+ cells with either inducer (activin or Wnt)” value in the test on CD4-HNF/GFP-T ES cells is reported as “completely blocked”. Further, in test [1] (2 days treatment, then 5 days on matrigel without factors), the “endoderm gene expression by RT PCR (pancreas, liver, intestine genes)” value is listed as “None of these genes were detected”. Further, the “hCD4 (HNF3β) level by flow cytometry” value in test [1] (after 1 day reaggregation, DKK1 100 ng/ml, activin 100 ng/ml) is listed as “allowed some cells to retain low levels of hCD4”.

B3: BMP4: growth factor purchased from R&D systems (protein, UniProt P12644 293-408, looked up)
Bone morphogenetic protein 4: SPKHHSQRARKKNKNCRRHSLYVDFSDVGWNDWIVAPPGYQAFYCHGDCPFPLADHLNSTNHAIVQTLVNSVNSSIPKACCVPTELSAISMLYLDEYDKVVLKNYQEMVVEGCGCR
As for B3, the “development of GFP^+/Flk-1^+ population” value in the test with EBs (brachyury^+ cells) (serum free primary differentiation cultures) is given as “did not support the development of the GFP^+/Flk-1^+ population”. In addition, the “induction of brachyury^+ cells” value in the test with EBs (brachyury^+ cells) (serum free, within 3 days of differentiation) was “induce a significant population of brachyury^+ cells”.
